In the supplement of paper PMC9732359:
± gives the uncertainty stated by the source.

Experiment: protein stability index of a GFP-peptide fusion (yeast GPS) (PSI 1-4); higher = more stable; sorted into four equal gates, so the index is relative within each strain
Procedure, shortened: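 Sequencing reads from sorted gates were used to score each peptide. The library consisted of tiled 17-residue yeast protein peptides fused downstream of GFP on a Cherry-expressing plasmid, pooled and carried in yeast. Mid-log cultures in leucine-free medium were split into four equal gates by GFP/Cherry ratio, and each gate's plasmids were PCR-amplified and Illumina-sequenced. The protein stability index adds up, over all gates, the read frequency multiplied by the gate number.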

Row | Sequence | protein stability index (doa10∆) | protein stability index (pdr5∆) | protein stability index (san1∆) | protein stability index (ubr1∆)
1 | ANKTNLIESLNTIRQNV [YML103C/NUP188] | 1.57 ± 0.053 | 1.83 ± 0.053 | 1.73 ± 0.12 | 1.77 ± 0.063
2 | KSWLNRLNNWLFGWNDL [YMR153W/NUP53] | 2.63 ± 0.057 | 2.33 ± 0.045 | 2.03 ± 0.065 | 2.68 ± 0.04
3 | VVNSNFAKEHNATVNLA [YJR042W/NUP85] | 2.82 ± 0.1 | 2.32 ± 0.12 | 2.75 ± 0.078 | 2.67 ± 0.13
4 | VEEKPGDRGALARASGN [RPL2A] | 2.95 ± 0.12 | 3.23 ± 0.13 | 3.37 ± 0.092 | 3.13 ± 0.11
5 | KCLNYRNVNWIERLTKR [ITC1] | 2.91 ± 0.084 | 3.07 ± 0.052 | 2.96 ± 0.05 | 3.09 ± 0.038
6 | LQLTTNTEQGDSDELGG [SNM1] | 3.25 ± 0.16 | 3.55 ± 0.29 | 3.29 ± 0.11 | 3.09 ± 0.24
7 | GLGVLTHRNKDGTGVRV [FAS1] | 3.12 ± 0.066 | 2.47 ± 0.094 | 3.58 ± 0.082 | 3.27 ± 0.085
8 | LKPKLYYEQFRPDLIKE [SIR3] | 3.06 ± 0.073 | 3.15 ± 0.06 | 3.25 ± 0.05 | 3.33 ± 0.045
9 | FDDSDITKFALFAESHD [YML103C/NUP188] | 2.71 ± 0.3 |  | 2.92 ± 0.15 | 
10 | LATDVTTLNEMFRYKTN [PUP3] | 1.85 ± 0.14 | 2.72 ± 0.11 | 1.91 ± 0.077 | 2.53 ± 0.1
11 | PKLESVKWQYDPNNPVD [SNF12] | 2.38 ± 0.059 | 2.81 ± 0.055 | 2.21 ± 0.067 | 2.55 ± 0.031
12 | DDDDYGDEEDPNEEAAF [RPC31] |  | 3.38 ± 0.28 |  | 
13 | SMTAVPKPLKFLRPTYP [RPN1] | 2.33 ± 0.058 | 2.21 ± 0.064 | 1.85 ± 0.069 | 2.47 ± 0.064
14 | NTLLQQQNYSKVLLPSI [SWI1] | 2.07 ± 0.077 | 2.9 ± 0.11 | 2.79 ± 0.076 | 3.09 ± 0.095
15 | ESLTNSNMFDNSADVDM [YGL100W/SEH1] | 3.34 ± 0.085 | 3.57 ± 0.086 | 3.48 ± 0.056 | 3.36 ± 0.093
16 | TKMFEDRREKAERTMSK [SMC2] | 3.4 ± 0.14 | 3.37 ± 0.1 | 3.22 ± 0.086 | 3.54 ± 0.088
17 | VSTKMHRTIVIRRAYLH [RPS11A] | 1.37 ± 0.047 | 1.14 ± 0.054 | 1.54 ± 0.087 | 1.12 ± 0.033
18 | KKSKLISLYLLNLLSQN [RPN12] | 1.31 ± 0.057 | 1.97 ± 0.062 | 1.26 ± 0.094 | 1.84 ± 0.046
19 | DDEHNPTIVGGLYYQRP [AAR2] | 2.66 ± 0.053 | 2.56 ± 0.039 | 2.62 ± 0.036 | 2.96 ± 0.04
20 | LKNYVLNELHPTLPTNH [PRP8] | 2.73 ± 0.047 | 3.04 ± 0.054 | 2.53 ± 0.064 | 2.67 ± 0.031
21 | SYHNGNLKGRPYTGWVD [FAS2] | 2.07 ± 0.096 | 3.13 ± 0.1 | 3.08 ± 0.1 | 2.83 ± 0.094
22 | VVLYNYYLGQYYGCLEN [CSN12] | 2.5 ± 0.17 | 2.57 ± 0.15 | 2.51 ± 0.11 | 1.97 ± 0.13
23 | KPANASHAIRLGNGVAC [RGR1] | 2.71 ± 0.06 | 3.06 ± 0.052 | 2.52 ± 0.058 | 3.01 ± 0.051
24 | VQDRGLSAVAQAESMKF [RPS3] | 3.16 ± 0.11 | 3.16 ± 0.11 | 2.73 ± 0.15 | 2.9 ± 0.075
25 | IWVGEWKEVLAHNPELE [RPO31] | 3 ± 0.087 | 2.36 ± 0.078 | 2.74 ± 0.072 | 2.74 ± 0.053
26 | KFTIEPGVLPVGIDTHT [SNF2] | 2.75 ± 0.12 | 2.61 ± 0.14 | 3 ± 0.14 | 2.73 ± 0.068
